Measured values as given in US20030138840A1.

Columns and labels:
[1] = target: Recombinant human CPP32 protein with a C-terminal 6His tag, (p17p12)2 tetramer (human) (UniProt P42574); test: cell-based or functional assay
[2] = target: CPP32 P12 subunit + Leu + Glu + 6 His (human) (UniProt P42574); test: analysis of the purified protein (SDS-PAGE, RP-HPLC, MALDI-TOF MS, N-terminal sequence and amino acid analysis)

Row | Molecule | enzyme inhibited (CPP32 protease activity) [1] | molar ratio [2]
1 | Ac-Asp-Val-Ala-Asp-fluoromethylketone (peptide) | 99.9% | 
2 | CPP32 P17 subunit (enzyme, human, UniProt P42574 29-175, looked up) SGISLDNSYKMDYPEMGLCIIINNKNFHKSTGMTSRSGTDVDAANLRETFRNLKYEVRNKNDLTREEIVELMRDVSKEDHSKRSSFVCVLLSHGEEGIIFGTNGPVDLKKITNFFRGDRCRSLTGKPKLFIIQACRGTELDCGIETD |  | 1 mol/mol
